Assay results as given in patent US20180298360, “CAS9 VARIANTS AND METHODS OF USE THEREOF” (The Regents of the University of California, published 2018).

Target: T1, ΔHNH-Cas9 (ΔHNH-4; T769-K918 replaced by GGSGGS) (Streptococcus pyogenes)
T1 chain: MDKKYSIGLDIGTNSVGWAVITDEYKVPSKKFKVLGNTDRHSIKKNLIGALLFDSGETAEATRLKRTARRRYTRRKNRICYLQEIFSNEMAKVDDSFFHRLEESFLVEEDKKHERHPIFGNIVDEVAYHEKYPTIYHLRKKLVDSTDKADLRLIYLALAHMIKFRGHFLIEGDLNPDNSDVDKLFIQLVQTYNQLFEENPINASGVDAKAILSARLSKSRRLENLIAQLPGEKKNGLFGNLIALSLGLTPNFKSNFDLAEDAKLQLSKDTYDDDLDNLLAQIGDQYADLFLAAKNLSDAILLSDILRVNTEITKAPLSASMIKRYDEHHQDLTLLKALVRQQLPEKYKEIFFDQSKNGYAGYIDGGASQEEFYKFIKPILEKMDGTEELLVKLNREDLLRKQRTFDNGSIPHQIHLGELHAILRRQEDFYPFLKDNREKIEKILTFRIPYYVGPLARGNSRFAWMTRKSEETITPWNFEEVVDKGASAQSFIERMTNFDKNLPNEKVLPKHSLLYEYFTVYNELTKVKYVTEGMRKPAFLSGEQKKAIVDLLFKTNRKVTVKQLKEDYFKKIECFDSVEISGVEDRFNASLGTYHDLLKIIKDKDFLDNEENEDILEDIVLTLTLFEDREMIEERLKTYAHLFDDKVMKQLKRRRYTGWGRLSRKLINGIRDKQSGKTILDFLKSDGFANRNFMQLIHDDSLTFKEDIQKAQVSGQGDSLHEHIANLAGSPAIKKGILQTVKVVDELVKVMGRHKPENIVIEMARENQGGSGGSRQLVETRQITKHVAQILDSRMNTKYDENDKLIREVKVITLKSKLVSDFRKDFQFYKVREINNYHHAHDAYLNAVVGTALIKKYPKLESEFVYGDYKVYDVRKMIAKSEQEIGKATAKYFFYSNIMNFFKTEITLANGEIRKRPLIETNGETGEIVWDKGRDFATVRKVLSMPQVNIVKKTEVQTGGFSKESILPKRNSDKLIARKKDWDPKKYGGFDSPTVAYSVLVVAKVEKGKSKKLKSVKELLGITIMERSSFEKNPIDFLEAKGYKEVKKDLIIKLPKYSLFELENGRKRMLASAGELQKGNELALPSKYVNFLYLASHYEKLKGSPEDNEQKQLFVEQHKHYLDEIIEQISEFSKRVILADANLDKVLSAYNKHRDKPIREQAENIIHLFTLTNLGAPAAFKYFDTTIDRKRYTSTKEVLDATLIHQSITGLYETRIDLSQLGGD
Experiment: EMSA; PAM TGG; 5 mM MgCl2, 100 mM KCl, pH 7.5, 50 ug/mL heparin, room temperature, 100 nM sgRNA
Conditions: tags: N-terminal His10-MBP, TEV protease treated; label: 5'-radiolabel; single-guide RNA
Description: Binding reactions (15 μL) were performed at room temperature in Reaction Buffer supplemented with 50 μg/mL heparin using <0.1 nM radiolabeled dsDNA substrates. Reactions were resolved by 8% native polyacrylamide gel electrophoresis (0.5×TBE, 5 mM MgCl₂) for 1.5-2 hr at 4° C. in a running buffer containing 0.5×TBE and 5 mM MgCl₂. Reactions were visualized by phosphorimaging (GE Healthcare).
Reactions were resolved by 8% native polyacrylamide gel electrophoresis. […] Solid lines represent fits from binding isotherms.

B1: sgRNA (bacteriophage target) ; 55-bp DNA substrate (ssRNA ; dsDNA)
RNA: GACGCAUAAAGAUGAGACGCGUUUUAGAGCUAUGCUGUUUUGGAAACAAAACAGCAUAGCAAGUUAAAAUAAGGCUAGUCCGUUAUCAACUUGAAAAAGUGGCACCGAGUCGGUGCUUUUUUUGGAUC
DNA 1: AGCAGAAATCTCTGCTGACGCATAAAGATGAGACGCTGGAGTACAAACGTCAGCT
DNA 2: AGCTGACGTTTGTACTCCAGCGTCTCATCTTTATGCGTCAGCAGAGATTTCTGCT
Question: For B1, which Kd is on record?
Answer: 1.2 nM
